From patent publication US4546077A, “Leucine dehydrogenase and a process for production thereof” (Unitika Ltd., priority 1982, dated 1985)

How the values were obtained:
[1] = substrate: CC(C)C[C@H](N)C(=O)O; experiment: Michaelis constants of leucine dehydrogenase; type: biochemical; conditions: other: purified leucine dehydrogenase from Bacillus stearothermophilus; pH 11.0; 55.0 °C
Procedure: (§1) Next, physico-chemical properties of the thus obtained leucine dehydrogenase of the present invention are shown below, wherein the leucine dehydrogenase was obtained from Bacillus stearothermophilus.
(§2) A solution mixture containing 1.25 mM NAD and 10 mM L-leucine in a […] glycine-KCl-KOH buffer solution having pH 11 was prepared. A suitable amount of a leucine dehydrogenase was added to the solution mixture and the increment of a reduced type NAD per unit time at 55° C. was measured as an increment of the absorbancy at 340 nm. The amount of the enzyme which made it possible to increase the absorbancy of 1μ mole of NADH at 340 nm per minute was set at 1 unit.

[2] = substrate: NC(=O)c1ccc[n+]([C@@H]2O[C@H](COP(=O)([O-])OP(=O)(O)OC[C@H]3O[C@@H](n4cnc5c(N)ncnc54)[C@H](O)[C@@H]3O)[C@@H](O)[C@H]2O)c1; experiment: Michaelis constants of leucine dehydrogenase; type: biochemical; conditions: other: purified leucine dehydrogenase from Bacillus stearothermophilus; pH 11.0; 55.0 °C
Procedure: as §1, §2

B1: leucine dehydrogenase obtained from Bacillus stearothermophilus (Geobacillus stearothermophilus) (protein)
chain: MELFKYMETYDYEQVLFCQDKESGLKAIIAIHDTTLGPALGGTRMWMYNSEEEALEDALRLARGMTYKNAAAGLNLGGGKTVIIGDPRKDKNEAMFRAFGRFIQGLNGRYITAEDVGTTVADMDIIYQETDYVTGISPEFGSSGNPSPATAYGVYRGMKAAAKEAFGSDSLEGKVVAVQGVGNVAYHLCRHLHEEGAKLIVTDINKEVVARAVEEFGAKAVDPNDIYGVECDIFAPCALGGIINDQTIPQLKAKVIAGSADNQLKEPRHGDIIHEMGIVYAPDYVINAGGVINVADELYGYNRERAMKKIEQIYDNIEKVFAIAKRDNIPTYVAADRMAEERIETMRKARSPFLQNGHHILSRRRAR
notes: the leucine dehydrogenase was obtained from Bacillus stearothermophilus; endogenous in cells; host or cells: Bacillus stearothermophilus (enzyme isolated and purified from the cultured bacteria)
Km [1]: 1500 µM
Km [2]: 400 µM
